Results taken from the supplement of paper PMC9170038.

Tested on: MS2 coat protein
Test: apparent KD of MS2 coat protein; designed switch direction (-1 OFF switch, 1 ON switch): -1; higher = weaker reporter binding
How it was run: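 Designed RNA switches sharing common flanks were transcribed on Illumina chips by stalled E. coli RNA polymerase. They were titrated with SNAP-549-labelled MS2 coat protein, from 0.7 or 1.5 nM doubling to 3 µM, in Tris-HCl pH 7.5 buffer with KCl, MgCl2, BSA, DTT, tRNA and Tween-20. Titrations ran without input, with 200 uM small-molecule ligand, or with an oligonucleotide input. The apparent KD of each design is the median over its clusters, after curve-fitting of normalised cluster fluorescence.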

[1] = Eterna round: R95, input ligand: FMN 200 uM
[2] = Eterna round: R95, input ligand: microRNA oligo, concentration not stated
[3] = Eterna round: R95, input ligand: none
[4] = input ligand: microRNA oligo, concentration not stated

Sequence: ACUUGCUAUUUGCUCGUCUUAUUUUUGUUUAUUUACUAUACAUGAGGAUCACCCAUGUUAUAUUUAAGGGUGUGAUA [JR_SV3TOV2_Sub074] (puzzle: Sensor v3, turn-off variant 2)
- apparent KD of MS2 coat protein [1]: 270 nM
- apparent KD of MS2 coat protein [2]: 334 nM
- apparent KD of MS2 coat protein [3]: 259 nM

Sequence: ACUUGUAGAGGAUAUACGAGGGCCCAAGCGGCGAGAGCCGCACAUGAGGAUCACCCAUGUAGAAGGCUACUAUU [JL-ex2-4.25 ViennaUCT mod] (Eterna round: R97, puzzle: Exclusion 2)
- apparent KD of MS2 coat protein (input ligand: FMN 200 uM): 374 nM
- apparent KD of MS2 coat protein (input ligand: none): 116 nM

Sequence: ACUUGUUGUCCUUGAUAUUACAUGAGGAUCACCCAUGUUAUUGUGAUUUUGAUGUGUAAGUUUGUUGCUCGUCUUAU [JR_STOV1_Sub064] (Eterna round: R97, puzzle: Sensor, turn-off variant 1)
- apparent KD of MS2 coat protein (input ligand: FMN 200 uM): 70.2 nM
- apparent KD of MS2 coat protein (input ligand: none): 71.5 nM

Sequence: ACUUGUUGUCCUUGAUUUUACAUGAGGAUCACCCAUGUUAUUUUGAUUAUGAUGUGUAAGUUUGUUGCUCGUUUUAU [JR_STOV1_Sub067] (Eterna round: R97, puzzle: Sensor, turn-off variant 1)
- apparent KD of MS2 coat protein (input ligand: FMN 200 uM): 61.9 nM
- apparent KD of MS2 coat protein (input ligand: none): 67.4 nM

Sequence: AGAAAACGAGGAUAUACGUGCAUAUUCUCGCCCAAUGGGCAACAUGAGGAUCACCCAUGUAGAAGGCGUAAAGA [Dienoror] (puzzle: Exclusion 2)
- apparent KD of MS2 coat protein [2]: 34.6 nM

Sequence: AGAAAUGCCCAUGGCCACAAGCUUUUUGCUUGUCUUACUACAUGAGGAUCACCCAUGUACCAUGGGCUCCUGAUAAU [Anxemaes] (puzzle: Sensor v3, turn-off variant 2)
- apparent KD of MS2 coat protein [1]: 13.8 nM
- apparent KD of MS2 coat protein [2]: 9.75 nM
- apparent KD of MS2 coat protein [3]: 10.4 nM

Sequence: AGAAAUGCCCAUGGCCGCAAGCUUUUUGCUUGUCUUACCACAUGAGGAUCACCCAUGUGACAUGGGCUCCUGAUAAU [Bivequ] (puzzle: Sensor v3, turn-off variant 2)
- apparent KD of MS2 coat protein [1]: 13.7 nM
- apparent KD of MS2 coat protein [2]: 10.7 nM
- apparent KD of MS2 coat protein [3]: 12.1 nM

Sequence: AGAAGUAGUAACCGAUCCUACAUGAGGAUCACCCAUGUAGCAAGACGUGCACGCGAAGCUCGUCAGACUACCAGAUG [salish99_TOv1_r3_020] (puzzle: Sensor v3, turn-off variant 1)
- apparent KD of MS2 coat protein [1]: 159 nM
- apparent KD of MS2 coat protein [2]: 252 nM
- apparent KD of MS2 coat protein [3]: 242 nM

Sequence: AGAAGUGCCGAGGAUAUCCAGGCAAUCUCGUUCGGAGAAGGCGGCACUUGAGGAUCACCCAAGUGCUCCAAAAG [Essoatxe] (Eterna round: R97, puzzle: Exclusion 6)
- apparent KD of MS2 coat protein (input ligand: FMN 200 uM): 59.2 nM
- apparent KD of MS2 coat protein (input ligand: none): 18.9 nM

Sequence: AGACAGUCAGGAUAUACAUGAGGAUCACCCAUGUUGAGAAGAGAAAGGGCAGGAAGAGGUAGAAGGGACAAGAA [JR_Exclu3_Sub034] (puzzle: Exclusion 3)
- apparent KD of MS2 coat protein [1]: 21.3 nM
- apparent KD of MS2 coat protein [2]: 25.7 nM
- apparent KD of MS2 coat protein [3]: 29.3 nM

Sequence: AGAGAAUAGGUAGGAUAUCUUAAUAGAAAGAAUAGAGAAGGACCACAUGAGGAUCACCCAUGUGAUGUCUUGAGACUACAUGGU [Prohibition 32 - Jieux - Exclusion NG 1] (Eterna round: R96, puzzle: Exclusion NG 1)
- apparent KD of MS2 coat protein [4]: 13.3 nM

Sequence: AGAGAAUAGUCAGGAUAUCUUAAUAGAAAGAAUAGAGAAGGGACACAUGAGGAUCACCCAUGUGAAGUCUUGAGACUACAUGGU [Prohibition 30 - Jieux - Exclusion NG 1] (Eterna round: R96, puzzle: Exclusion NG 1)
- apparent KD of MS2 coat protein (input ligand: FMN 200 uM): 108 nM
- apparent KD of MS2 coat protein [4]: 27.4 nM
- apparent KD of MS2 coat protein (input ligand: none): 35.3 nM

Sequence: AGAGAGUCAGGAUAUCGAAGGUAGAGAAAAGGAGAGAGGUACGAGAAGGGACAUGAGGAUCACCCAUGUAGGUG [JR_Exclusion4)Sub014] (puzzle: Exclusion 4)
- apparent KD of MS2 coat protein [1]: 526 nM
- apparent KD of MS2 coat protein [2]: 286 nM
- apparent KD of MS2 coat protein [3]: 381 nM

Sequence: AGAGAGUCAGGAUAUCGAAGGUAGAGAAAAGGAGAGUGGUACGAGAAGGGACAUGAGGAUCACCCAUGUAGGUG [JR_Exclusion4)Sub013] (puzzle: Exclusion 4)
- apparent KD of MS2 coat protein [1]: 343 nM
- apparent KD of MS2 coat protein [2]: 431 nM
- apparent KD of MS2 coat protein [3]: 441 nM

Sequence: AGAGCACAUGAGGAUCACCCAUGUCAGGAUAUCGACUGAACAGCUUCGGCUGUUCAGUCGAGAAGGGACAAUUA [Brourdxlusion 7 - Jieux - Exclusion 1] (Eterna round: R97, puzzle: Exclusion 1)
- apparent KD of MS2 coat protein (input ligand: FMN 200 uM): 19.4 nM
- apparent KD of MS2 coat protein (input ligand: none): 35 nM

Sequence: AGAGGACAUGAGGAUCACCCAUGUAAGGAUAUGCGGAGAGUUUGGAGAGGUCGGGUAGGCAGAAGGUACAGGAG [JR_Exclu1_Sub050] (Eterna round: R96, puzzle: Exclusion 1)
- apparent KD of MS2 coat protein (input ligand: FMN 200 uM): 48 nM
- apparent KD of MS2 coat protein [4]: 41 nM
- apparent KD of MS2 coat protein (input ligand: none): 86.4 nM

Sequence: AGAGGACAUGAGGAUCACCCAUGUAAGGAUAUGCGGAGAGUUUGGAGAGGUCGGGUAGGCAGAAGGUACAGGAG [JR_Exclu1_Sub050] (puzzle: Exclusion 1)
- apparent KD of MS2 coat protein [1]: 82.2 nM
- apparent KD of MS2 coat protein [2]: 92.5 nM
- apparent KD of MS2 coat protein [3]: 89.4 nM

Sequence: AGAGUACAUGAGGAUCACCCAUGUUAGGAUAUGCAUAAUAAGAAGAAGAGAAGAGAGAGCAGAAGGAACAAGAG [Ex 1 M1] (puzzle: Exclusion 1)
- apparent KD of MS2 coat protein [1]: 42.5 nM
- apparent KD of MS2 coat protein [2]: 48 nM
- apparent KD of MS2 coat protein [3]: 57.8 nM

Sequence: AGAGUGUGAGGAUAUACAUGAGGAUCACCCAUGUAAUAACAGGUUACGGGCGGCACCAGUAGAAGGCACUUGUC [Eternabot (L2) Solution 22] (Eterna round: R97, puzzle: Exclusion 3)
- apparent KD of MS2 coat protein (input ligand: FMN 200 uM): 42 nM
- apparent KD of MS2 coat protein (input ligand: none): 28.2 nM

Sequence: AGAUCACAUGAGGAUCACCCAUGUCAGGAUAUCAUCAUUGAAGCUUCGGCUUCAAUGAUGAGAAGGGACAUAAU [E1/2-B1] (Eterna round: R97, puzzle: Exclusion 1)
- apparent KD of MS2 coat protein (input ligand: FMN 200 uM): 297 nM
- apparent KD of MS2 coat protein (input ligand: none): 598 nM

Sequence: AGAUCACAUGAGGAUCACCCAUGUCAGGAUAUCGUCACUGGAGCUUCGGCUCCAGUGACGAGAAGGGACAAUUA [E1/1-A3] (Eterna round: R97, puzzle: Exclusion 1)
- apparent KD of MS2 coat protein (input ligand: FMN 200 uM): 304 nM
- apparent KD of MS2 coat protein (input ligand: none): 161 nM

Sequence: AGAUCCUGAGUCAGGAUAUAGAGGCGAAAGCCUGGCUAGAAGGGACAUGAGGAUCACCCAUGUGGGUUCGUGCC [Geariat] (puzzle: Brourd's mod of Exclusion 4)
- apparent KD of MS2 coat protein [2]: 19.6 nM

Sequence: AGAUGCUCAAGUCGACAUGAGGAUCACCCAUGUACAGUUAAUGAGGAUAUCUGAGACAAAUAGUAGGAGAAGGCGUGAACAUGA [Ex NG3 #10] (Eterna round: R96, puzzle: Exclusion NG 3)
- apparent KD of MS2 coat protein (input ligand: FMN 200 uM): 55.2 nM
- apparent KD of MS2 coat protein [4]: 26.5 nM
- apparent KD of MS2 coat protein (input ligand: none): 57.6 nM

Sequence: AGAUGUAGAAACCGAUCCUACAUGAGGAUCACCCAUGUAGCAAGACGUGCACGCGAAGCUCGUCAGACUACCAGAAG [salish99_TOv1_r3_082] (puzzle: Sensor v3, turn-off variant 1)
- apparent KD of MS2 coat protein [1]: 270 nM
- apparent KD of MS2 coat protein [2]: 188 nM
- apparent KD of MS2 coat protein [3]: 352 nM

Sequence: AGAUGUAGAUACCGGUCCUACAUGAGGAUCACCCAUGUAGCUUGACGUGCGGGCGGCGCUCGUCGGUCUACCAGUAG [salish99_TOv1_r3_100] (puzzle: Sensor v3, turn-off variant 1)
- apparent KD of MS2 coat protein [1]: 27.3 nM
- apparent KD of MS2 coat protein [2]: 28.6 nM
- apparent KD of MS2 coat protein [3]: 36.2 nM

Sequence: AGAUUACGUUAGGAUAUCCGGCCUGACGAGGAUGGAGAAGGAGCGACAUGAGGAUCACCCAUGUGUGGCACUCC [Eternabot (L1) Solution 76] (Eterna round: R97, puzzle: Exclusion 6)
- apparent KD of MS2 coat protein (input ligand: FMN 200 uM): 17.7 nM
- apparent KD of MS2 coat protein (input ligand: none): 18.3 nM

Sequence: AGCAGCCAAUCAGGAUAUACUUUCAGGUGAAGCGUCGCGGGCGAUAACAUGAGGAUCACCCAUGUGUAGAAGGGAUGCGCAAAC [Eternabot solution 39] (Eterna round: R96, puzzle: Exclusion NG 2)
- apparent KD of MS2 coat protein (input ligand: FMN 200 uM): 45.8 nM
- apparent KD of MS2 coat protein [4]: 30.3 nM
- apparent KD of MS2 coat protein (input ligand: none): 41.2 nM

Sequence: AGCAUGCAGUAGGAUAUCGAUCCGCAAUAUGAACGAGAAGGGCUGACAUGAGGAUCACCCAUGUGCGUCCUAGG [jl-ex6-4.40 ViennaUCT mod] (Eterna round: R97, puzzle: Exclusion 6)
- apparent KD of MS2 coat protein (input ligand: FMN 200 uM): 19.4 nM
- apparent KD of MS2 coat protein (input ligand: none): 20.2 nM

Sequence: AGCCAUACAGGAUAUGCCCGGGAUAACAUGAGGAUCACCCAUGUGACCGAUUCAUGUCCUGCAGAAGGGUAUGGGA [Mod of ViennaUCT 3 - Jieux - Exclusion 5] (Eterna round: R97, puzzle: Exclusion 5)
- apparent KD of MS2 coat protein (input ligand: FMN 200 uM): 31.7 nM
- apparent KD of MS2 coat protein (input ligand: none): 16.8 nM

Sequence: AGCGAGGCAGGAUAUACAUGAGGAUCACCCAUGUACUUGUAUGGCGUGGAACAUCGUGGUAGAAGGGCCGCGCC [EX3 #79] (Eterna round: R97, puzzle: Exclusion 3)
- apparent KD of MS2 coat protein (input ligand: FMN 200 uM): 33.5 nM
- apparent KD of MS2 coat protein (input ligand: none): 23.7 nM

Sequence: AGCGGAGAUGUCAGGAUAUCUCGCUCGGUGGGUUGAGAGAAGGGACAUGAGGAUCACCCAUGUCUGCAAUUGUC [Eternabot (Original) Solution 46] (Eterna round: R97, puzzle: Brourd's mod of Exclusion 4)
- apparent KD of MS2 coat protein (input ligand: FMN 200 uM): 19.9 nM
- apparent KD of MS2 coat protein (input ligand: none): 17.9 nM

Sequence: AGCGUGGCUCAGGAUAUCAGCCCUGUGGAGUUCUGAGAAGGGAGCACAUGAGGAUCACCCAUGUGAAAGGGUAC [Useratarin] (puzzle: Exclusion 6)
- apparent KD of MS2 coat protein [1]: 103 nM
- apparent KD of MS2 coat protein [2]: 24.7 nM
- apparent KD of MS2 coat protein [3]: 29.7 nM

Sequence: AGCUAGUCAGGAUAUACGCAAACGAACGAAGCAGUGAAGGGACAUGAGGAUCACCCAUGUAGAAGGGACUAGCA [Diamond 30] (Eterna round: R96, puzzle: Exclusion 2)
- apparent KD of MS2 coat protein (input ligand: FMN 200 uM): 121 nM
- apparent KD of MS2 coat protein [4]: 17.4 nM
- apparent KD of MS2 coat protein (input ligand: none): 24.9 nM
